Results taken from paper PMC7395460, “Structural mechanism of helicase loading onto replication origin DNA by ORC-Cdc6” (Proceedings of the National Academy of Sciences of the …, 2020).

T1: Mcm4 (S. cerevisiae, UniProt P30665 1-933)
T1 construct: Mcm4 of S. cerevisiae; Stood in the assay as a subunit of the mutant Mcm2-7
T1 sequence: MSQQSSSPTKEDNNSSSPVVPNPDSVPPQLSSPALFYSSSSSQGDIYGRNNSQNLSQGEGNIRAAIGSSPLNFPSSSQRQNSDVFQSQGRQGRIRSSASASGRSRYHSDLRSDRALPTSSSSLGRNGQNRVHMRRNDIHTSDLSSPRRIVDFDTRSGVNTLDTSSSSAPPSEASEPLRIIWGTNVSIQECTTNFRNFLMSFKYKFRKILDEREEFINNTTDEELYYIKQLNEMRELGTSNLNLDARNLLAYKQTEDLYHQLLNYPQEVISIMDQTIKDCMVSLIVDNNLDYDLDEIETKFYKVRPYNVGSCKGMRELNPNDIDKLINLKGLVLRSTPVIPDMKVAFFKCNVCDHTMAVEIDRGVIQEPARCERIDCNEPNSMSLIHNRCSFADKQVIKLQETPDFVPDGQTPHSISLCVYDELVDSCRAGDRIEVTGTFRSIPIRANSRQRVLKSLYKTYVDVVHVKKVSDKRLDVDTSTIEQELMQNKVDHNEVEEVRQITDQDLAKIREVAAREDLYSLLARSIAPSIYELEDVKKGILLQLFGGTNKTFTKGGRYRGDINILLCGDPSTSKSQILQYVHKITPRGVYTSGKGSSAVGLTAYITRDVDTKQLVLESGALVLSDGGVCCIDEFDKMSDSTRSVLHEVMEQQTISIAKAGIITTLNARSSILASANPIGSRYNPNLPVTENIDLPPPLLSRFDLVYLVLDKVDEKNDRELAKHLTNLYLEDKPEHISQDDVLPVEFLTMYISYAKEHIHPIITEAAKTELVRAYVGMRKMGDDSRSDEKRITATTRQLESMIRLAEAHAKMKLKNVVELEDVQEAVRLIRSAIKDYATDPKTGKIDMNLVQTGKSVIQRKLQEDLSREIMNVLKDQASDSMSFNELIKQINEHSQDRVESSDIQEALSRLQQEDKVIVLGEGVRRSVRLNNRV

B1: Orc2 (natural protein, S. cerevisiae)
chain: MLNGEDFVEHNDILSSPAKSRNVTPKRVDPHGERQLRRIHSSKKNLLERISLVGNERKNTSPDPALKPKTPSKAPRKRGRPRKIQEELTDRIKKDEKDTISSKKKRKLDKDTSGNVNEESKTSNNKQVMEKTGIKEKREREKIQVATTTYEDNVTPQTDDNFVSNSPEPPEPATPSKKSLTTNHDFTSPLKQIIMNNLKEYKDSTSPGKLTLSRNFTPTPVPKNKKLYQTSETKSASSFLDTFEGYFDQRKIVRTNAKSRHTMSMAPDVTREEFSLVSNFFNENFQKRPRQKLFEIQKKMFPQYWFELTQGFSLLFYGVGSKRNFLEEFAIDYLSPKIAYSQLAYENELQQNKPVNSIPCLILNGYNPSCNYRDVFKEITDLLVPAELTRSETKYWGNHVILQIQKMIDFYKNQPLDIKLILVVHNLDGPSIRKNTFQTMLSFLSVIRQIAIVASTDHIYAPLLWDNMKAQNYNFVFHDISNFEPSTVESTFQDVMKMGKSDTSSGAEGAKYVLQSLTVNSKKMYKLLIETQMQNMGNLSANTGPKRGTQRTGVELKLFNHLCAADFIASNEIALRSMLREFIEHKMANITKNNSGMEIIWVPYTYAELEKLLKTVLNTL
notes: Orc2, subunit of the S. cerevisiae origin recognition complex; Stood in the assay as a subunit of ORC
B2: Orc1 (natural protein, S. cerevisiae)
chain: MAKTLKDLQGWEIITTDEQGNIIDGGQKRLRRRGAKTEHYLKRSSDGIKLGRGDSVVMHNEAAGTYSVYMIQELRLNTLNNVVELWALTYLRWFEVNPLAHYRQFNPDANILNRPLNYYNKLFSETANKNELYLTAELAELQLFNFIRVANVMDGSKWEVLKGNVDPERDFTVRYICEPTGEKFVDINIEDVKAYIKKVEPREAQEYLKDLTLPSKKKEIKRGPQKKDKATQTAQISDAETRATDITDNEDGNEDESSDYESPSDIDVSEDMDSGEISADELEEEEDEEEDEDEEEKEARHTNSPRKRGRKIKLGKDDIDASVQPPPKKRGRKPKDPSKPRQMLLISSCRANNTPVIRKFTKKNVARAKKKYTPFSKRFKSIAAIPDLTSLPEFYGNSSELMASRFENKLKTTQKHQIVETIFSKVKKQLNSSYVKEEILKSANFQDYLPARENEFASIYLSAYSAIESDSATTIYVAGTPGVGKTLTVREVVKELLSSSAQREIPDFLYVEINGLKMVKPTDCYETLWNKVSGERLTWAASMESLEFYFKRVPKNKKKTIVVLLDELDAMVTKSQDIMYNFFNWTTYENAKLIVIAVANTMDLPERQLGNKITSRIGFTRIMFTGYTHEELKNIIDLRLKGLNDSFFYVDTKTGNAILIDAAGNDTTVKQTLPEDVRKVRLRMSADAIEIASRKVASVSGDARRALKVCKRAAEIAEKHYMAKHGYGYDGKTVIEDENEEQIYDDEDKDLIESNKAKDDNDDDDDNDGVQTVHITHVMKALNETLNSHVITFMTRLSFTAKLFIYALLNLMKKNGSQEQELGDIVDEIKLLIEVNGSNKFVMEIAKTLFQQGSDNISEQLRIISWDFVLNQLLDAGILFKQTMKNDRICCVKLNISVEEAKRAMNEDETLRNL
notes: Orc1, subunit of the S. cerevisiae origin recognition complex; Stood in the assay as a subunit of ORC
B3: Mcm7 (natural protein, S. cerevisiae, UniProt P38132 1-845, looked up)
chain: MSAALPSIQLPVDYNNLFNEITDFLVTFKQDTLSSDATRNENEDENLDAENIEQHLLEKGPKYMAMLQKVANRELNSVIIDLDDILQYQNEKFLQGTQADDLVSAIQQNANHFTELFCRAIDNNMPLPTKEIDYKDDVLDVILNQRRLRNERMLSDRTNEIRSENLMDTTMDPPSSMNDALREVVEDETELFPPNLTRRYFLYFKPLSQNCARRYRKKAISSKPLSVRQIKGDFLGQLITVRGIITRVSDVKPAVEVIAYTCDQCGYEVFQEVNSRTFTPLSECTSEECSQNQTKGQLFMSTRASKFSAFQECKIQELSQQVPVGHIPRSLNIHVNGTLVRSLSPGDIVDVTGIFLPAPYTGFKALKAGLLTETYLEAQFVRQHKKKFASFSLTSDVEERVMELITSGDVYNRLAKSIAPEIYGNLDVKKALLLLLVGGVDKRVGDGMKIRGDINVCLMGDPGVAKSQLLKAICKISPRGVYTTGKGSSGVGLTAAVMKDPVTDEMILEGGALVLADNGICCIDEFDKMDESDRTAIHEVMEQQTISISKAGINTTLNARTSILAAANPLYGRYNPRLSPLDNINLPAALLSRFDILFLMLDIPSRDDDEKLAEHVTYVHMHNKQPDLDFTPVEPSKMREYIAYAKTKRPVMSEAVNDYVVQAYIRLRQDSKREMDSKFSFGQATPRTLLGIIRLSQALAKLRLADMVDIDDVEEALRLVRVSKESLYQETNKSKEDESPTTKIFTIIKKMLQETGKNTLSYENIVKTVRLRGFTMLQLSNCIQEYSYLNVWHLINEGNTLKFVDDGTMDTDQEDSLVSTPKLAPQTTASANVSAQDSDIDLQDA
notes: Mcm7 of S. cerevisiae; Stood in the assay as a subunit of the mutant Mcm2-7; in the semi-attached OCCM only its WHD is resolved

Experiments:
Assay in all cases: cryo-EM structure; pre-insertion OCCM, 8.1 Å; same loading reaction (purified ORC, Cdc6, Cdt1, mutant Mcm2-7, ARS1 DNA, ATPγS); models docked as rigid bodies
Settings in all cases: both partners purified
Mcm3 = biological target: T2, Mcm3 (S. cerevisiae, UniProt P24279 1-971)
T2 construct: Mcm3 of S. cerevisiae; Stood in the assay as a subunit of the mutant Mcm2-7; in the semi-attached OCCM only its WHD is resolved
T2 sequence (P24279 whole entry): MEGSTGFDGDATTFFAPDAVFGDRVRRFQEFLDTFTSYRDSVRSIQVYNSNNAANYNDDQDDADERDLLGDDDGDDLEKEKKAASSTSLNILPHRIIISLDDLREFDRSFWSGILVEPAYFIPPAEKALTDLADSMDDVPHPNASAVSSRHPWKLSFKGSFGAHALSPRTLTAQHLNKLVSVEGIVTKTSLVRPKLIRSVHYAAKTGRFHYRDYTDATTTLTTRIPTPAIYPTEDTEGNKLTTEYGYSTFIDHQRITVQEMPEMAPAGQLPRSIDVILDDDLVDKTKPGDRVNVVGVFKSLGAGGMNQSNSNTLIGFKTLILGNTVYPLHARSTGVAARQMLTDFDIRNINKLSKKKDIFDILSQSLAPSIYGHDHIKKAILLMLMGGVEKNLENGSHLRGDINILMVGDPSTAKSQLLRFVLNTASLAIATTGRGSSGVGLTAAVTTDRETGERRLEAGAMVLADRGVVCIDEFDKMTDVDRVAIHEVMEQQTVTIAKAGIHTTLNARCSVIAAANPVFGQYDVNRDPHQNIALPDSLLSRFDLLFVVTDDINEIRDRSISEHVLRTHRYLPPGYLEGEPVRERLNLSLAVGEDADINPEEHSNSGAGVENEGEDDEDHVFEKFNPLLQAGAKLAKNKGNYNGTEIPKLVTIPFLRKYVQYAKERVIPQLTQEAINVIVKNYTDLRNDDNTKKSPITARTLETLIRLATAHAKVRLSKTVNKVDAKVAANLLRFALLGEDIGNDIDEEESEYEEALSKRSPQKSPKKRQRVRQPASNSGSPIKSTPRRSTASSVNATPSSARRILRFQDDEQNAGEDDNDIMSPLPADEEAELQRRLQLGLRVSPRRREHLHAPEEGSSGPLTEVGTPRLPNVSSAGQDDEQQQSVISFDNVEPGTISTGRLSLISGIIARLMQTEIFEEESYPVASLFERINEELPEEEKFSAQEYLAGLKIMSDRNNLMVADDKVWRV

Mcm4 = biological target: T1, Mcm4
Orc1 = biological target: B2

Binder: B1
- binding result (Mcm3): binds

Binder: B2
- binding result (Mcm4): binds

Binder: B3
- binding result (Orc1): binds
